{"source": "paper PMC12285254", "tested_on": "T1, TetR1 (C_22735) (Pseudomonas syringae pv. actinidiae biovar 3 strain S26 (M228)), ORF:bd32bde6", "T1 sequence": "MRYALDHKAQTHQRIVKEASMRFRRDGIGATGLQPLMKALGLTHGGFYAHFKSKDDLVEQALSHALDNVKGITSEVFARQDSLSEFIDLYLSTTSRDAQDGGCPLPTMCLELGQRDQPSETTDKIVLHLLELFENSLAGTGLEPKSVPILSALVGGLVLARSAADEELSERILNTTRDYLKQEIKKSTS", "assay": "EMSA", "details": "LightShift EMSA Optimization and Control kit (Thermo) per manufacturer, 100 ng probe per reaction, varied protein; 2 uL of 1 mg/mL Myc.A7 for supershift …"}
{"sequence": "TTGAGTCGAGGATCACAATCTTCTGAAACATGGGCTTACCCTGATTTAATGGTGTGCAAGCCCTATAGCGATAACCATGCCAGCTTAAAAATATAAATAAGCCACTGATTTATAACGATATTTTAAAATATGAAATCCTTTGCAATACAAAACTTTGCGCAAACCGTTTTTTGCCACAACAGCTTTTGGCACAAAAACATCGGCCAGCTTCGCAAGGGAACTGATCCGGGACCGTGACCCACTCAGCGAACATAACCCGGCT (double strand) [hrpL upstream probe (262 bp)]", "values": [{"measurement": "binding", "value": "binds"}]}
